# Assay results as given in publication PMC7293037, “Fuse to defuse: a self-limiting ribonuclease-ring nuclease fusion for type III CRISPR defence” (Nucleic Acids Research, 2020).
# What was measured:
# [1] = system: Csx1-Crn2 H495A (Marinitoga piezophila); experiment: EMSA; details: apparent; both CARF and Crn2 sites intact, no cA4 cleavage in Crn2 site; cyclic tetra-adenylate, head-to-tail closed ring (no free 5' or 3' end); EMSA: 10 nM labelled cA4, 20 mM Tris-HCl pH 7.5, 150 mM NaCl, 2 mM MgCl2, 2 uM BSA, 10 min at 25 C; native 15% PAGE in 1x TBE at 28 C
# [2] = system: Csx1-Crn2 S452Y (Marinitoga piezophila); experiment: EMSA; details: cyclic tetra-adenylate, head-to-tail closed ring (no free 5' or 3' end); EMSA: 10 nM labelled cA4, 20 mM Tris-HCl pH 7.5, 150 mM NaCl, 2 mM MgCl2, 2 uM BSA, 10 min at 25 C; native 15% PAGE in 1x TBE at 28 C
sequence,measurement,setting,value
AAAA [cA4 (cyclic tetra-adenylate)],Kd,[1],20 nM
same,Kd,[2],1000 nM
